Data set [1] deals with the molecule itself. The experiment in a line: SEC-MALS; 1.6 mg injected onto Superdex 200 Increase 10/300, flow 0.35 ml/min.
Data set [2] deals with the molecule itself. The experiment in a line: crystal structure; mouse lipin 2 M-Lip^xtal, 0.2 M calcium acetate, 20% PEG 3350, hanging drop, RT.
Data set [3] concerns the molecule itself. The experiment in a line: SEC; Superdex 200 10/300 in 20 mM Tris pH 8.0, 150 mM NaCl, 10 mM 2-mercaptoethanol; elution compared with MW standards.

B1: mouse lipin 1 M-Lip^xtal domain (residues 458–548), as used in SEC-MALS (domain or fragment, UniProt Q91ZP3-2 458-548, looked up)
chain: SLRDLPSIAISLCGGLSDHREITKDAFLEQAVSYQQFADNPAIIDDPNLVVKVGNKYYNWTTAAPLLLAMQAFQKPLPKATVESIMRDKMP
notes: mouse lipin 1, M-Lip^xtal domain, residues 458–548; numbers count on: mouse lipin 1 alpha (891 residues); The stated dimer mass of 26 kDa (13 kDa a chain) would fit the 91 residues plus a vector-encoded His tag (surmise); source: E. coli BL21 (DE3) RIPL, purified (Ni-NTA, SEC)
For B1, in data set [1], the “stoichiometry N” value amounted to 2.

B2: mouse lipin 2 M-Lip^xtal domain (residues 459–549) (domain or fragment, UniProt Q99PI5 459-549, looked up)
chain: SAMDLPDVTLSLCGGLSENGEISKEKFMEHIITYHEFAENPGLIDNPNLVIRIYNRYYNWALAAPMILSLQVFQKSLPKATVESWVKDKMP
notes: mouse lipin 2, M-Lip^xtal domain, residues 459–549; Cloned into pET28b with NdeI and NotI; the purification section names pET28a; source: E. coli BL21 (DE3) RIPL, purified (Ni-NTA, SEC)
With B2, the binding result in data set [2] is recorded as “binds”.

B3: full-length mouse lipin 1 alpha (residues 1–891), from Sf9 cells (natural protein, UniProt Q91ZP3-2 1-891, looked up)
chain: MNYVGQLAGQVFVTVKELYKGLNPATLSGCIDIIVIRQPNGSLQCSPFHVRFGKMGVLRSREKVVDIEINGESVDLHMKLGDNGEAFFVQETDNDQEIIPMYLATSPILSEGAARMESQLKRNSVDRIRCLDPTTAAQGLPPSDTPSTGSLGKKRRKRRRKAQLDNLKRDDNVNSSEDEDMFPIEMSSDEDTAPMDGSRTLPNDVPPFQDDIPKENFPSISTHPQSASYPSSDREWSPSPSPSGSRPSTPKSDSELVSKSADRLTPKNNLEMLWLWGELPQAAKSSSPHKMKESSPLGSRKTPDKMNFQAIHSESSDTFSDQSPTMARGLLIHQSKAQTEMQFVNEEDLESLGAAAPPSPVAEELKAPYPNTAQSSSKTDSPSRKKDKRSRHLGADGVYLDDLTDMDPEVAALYFPKNGDPGGLPKQASDNGARSANQSPQSVGGSGIDSGVESTSDSLRDLPSIAISLCGGLSDHREITKDAFLEQAVSYQQFADNPAIIDDPNLVVKVGNKYYNWTTAAPLLLAMQAFQKPLPKATVESIMRDKMPKKGGRWWFSWRGRNATIKEESKPEQCLTGKGHNTGEQPAQLGLATRIKHESSSSDEEHAAAKPSGSSHLSLLSNVSYKKTLRLTSEQLKSLKLKNGPNDVVFSVTTQYQGTCRCEGTIYLWNWDDKVIISDIDGTITRSDTLGHILPTLGKDWTHQGIAKLYHKVSQNGYKFLYCSARAIGMADMTRGYLHWVNERGTVLPQGPLLLSPSSLFSALHREVIEKKPEKFKVQCLTDIKNLFFPNTEPFYAAFGNRPADVYSYKQVGVSLNRIFTVNPKGELVQEHAKTNISSYVRLCEVVDHVFPLLKRSHSCDFPCSDTFSNFTFWREPLPPFENQDMHSASA
notes: mouse lipin 1 alpha, full length, residues 1–891 (891 residues printed); Vector YM-Bac3, a modified pFastBac Htb; also called wild-type lipin 1; recombinant lipin 1; source: Sf9, baculovirus, purified (Ni-NTA, Streptactin-XT, SEC)
With B3, the binding result in data set [3] is recorded as “binds”.
